Values quoted from earlier work in article PMC12455044.
pKd: −log10 of the molar value.

Target: thrombin (Homo sapiens) (UniProt P00734)

Question: With PAR-1 (from UniProt P25116) as the substance, how does the pKd read?
Answer: Its pKd is 8.00.
